From patent US20250270289

B1: protein Tyr phosphatase 1B (protein)
chain: MEMEKEFEQIDKSGSWAAIYQDIRHEASDFPCRVAKLPKNKNRNRYRDVSPFDHSRIKLHQEDNDYINASLIKMEEAQRSYILTQGPLPNTCGHFWEMVWEQKSRGVVMLNRVMEKGSLKCAQYWPQKEEKEMIFEDTNLKLTLISEDIKSYYTVRQLELENLTTQETREILHFHYTTWPDFGVPESPASFLNFLFKVRESGSLSPEHGPVVVHCSAGIGRSGTFCLADTCLLLMDKRKDPSSVDIKKVLLEMRKFRMGLIQTADQLRFSYLAVIEGAKFIMGDSSVQDQWKELSHEDLEPPPEHIPPPPRPPKRILEPHN
B2: calf-intestinal alkaline phosphatase (protein)
chain: LVPVEEEDPAFWNRQAAQALDVAKKLQPIQTAAKNVILFLGDGMGVPTVTATRILKGQMNGKLGPETPLAMDQFPYVALSKTYNVDRQVPDSAGTATAYLCGVKGNYRTIGVSAAARYNQCKTTRGNEVTSVMNRAKKAGKSVGVVTTTRVQHASPAGAYAHTVNRNWYSDADLPADAQMNGCQDIAAQLVNNMDIDVILGGGRKYMFPVGTPDPEYPDDASVNGVRKRKQNLVQAWQAKHQGAQYVWNRTALLQAADDSSVTHLMGLFEPADMKYNVQQDHTKDPTLQEMTEVALRVVSRNPRGFYLFVEGGRIDHGHHDDKAYMALTEAGMFDNAIAKANELTSELDTLILVTADHSHVFSFGGYTLRGTSIFGLAPSKALDSKSYTSILYGNGPGYALGGGSRPDVNDSTSEDPSYQQQAAVPQASETHGGEDVAVFARGPQAHLVHGVEEETFVAHIMAFAGCVEPYTDCNLPAPTTATSIPD

Target: Cav(pnY)GFP
Sequence (Q03135 whole entry): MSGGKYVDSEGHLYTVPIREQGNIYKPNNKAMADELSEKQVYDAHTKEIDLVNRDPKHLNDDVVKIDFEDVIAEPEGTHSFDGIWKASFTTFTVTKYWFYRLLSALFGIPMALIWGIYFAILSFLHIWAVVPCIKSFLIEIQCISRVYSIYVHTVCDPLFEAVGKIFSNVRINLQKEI

| Protein | dephosphorylation of pnY (Western blot with phospho-caveolin antibody) | dephosphorylation of pnY, seen as loss of the phospho-caveolin antibody signal in a Western blot |
| --- | --- | --- |
| B1 | Cav(pnY)GFP was stable in buffered conditions, but dephosphorylated in a time and concentration dependent fashion | IB:pCav band present with PTP1B buffer alone, absent with PTP1B buffer + enzyme; total protein band present in both lanes, faint in the enzyme lane |
| B2 | Cav(pnY)GFP was stable in buffered conditions, but dephosphorylated in a time and concentration dependent fashion | IB:pCav band present with CIP buffer alone, absent with CIP buffer + enzyme; total protein band present in both lanes |
